Publication PMC3060121, “The Peroxisomal Targeting Signal 1 in sterol carrier protein 2 is autonomous and essential for receptor recognition” (BMC Biochemistry, 2011)

T1: Gal4DB-preSCP2 (1-143), two-hybrid fusion (human, UniProt P22307-2 1-143)
T1 construct: sterol carrier protein 2, human, residues 1-143, printed length 143; numbers count on: preSCP2 of 143 residues; In pPC97 between SalI and NotI; source: yeast two-hybrid fusion (S. cerevisiae PCY2)
T1 sequence (looked up): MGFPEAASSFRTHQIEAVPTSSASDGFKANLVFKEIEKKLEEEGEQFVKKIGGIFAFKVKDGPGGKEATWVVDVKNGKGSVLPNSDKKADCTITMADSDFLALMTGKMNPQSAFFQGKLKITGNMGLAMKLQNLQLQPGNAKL

T2: Gal4DB-mSCP2 (21-143), two-hybrid fusion (human, UniProt P22307-2 21-143)
T2 construct: sterol carrier protein 2, human, residues 21-143; numbers count on: preSCP2 of 143 residues; In pPC97 between SalI and NotI; source: yeast two-hybrid fusion (S. cerevisiae PCY2)
T2 sequence (looked up): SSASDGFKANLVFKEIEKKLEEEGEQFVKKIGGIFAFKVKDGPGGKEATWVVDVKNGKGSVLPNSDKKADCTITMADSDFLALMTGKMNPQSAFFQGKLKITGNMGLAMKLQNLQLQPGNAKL


Key:
[1] = target: T3, human Pex5p(C) (residues 315-639) S600W, infantile Refsum disease mutant (human, UniProt P50542 315-639, S600W, biotin (EZ-Link Sulfo-NHS-Biotinylation Kit, between 1 and 2 moles of biotin per mole)); assay: BLI; Octet RED96; biotinylated Pex5p(C) immobilised on streptavidin sensors at 20 μg/mL; PBS, 1000 rpm; association 1800 s, dissociation 1800 s; local fits, 1:1 model; settings: both partners purified
T3 construct: also called Pex5p(C)S600W

[2] = target: T4, human Pex5p(C) (residues 315-639) R608W (human, UniProt P50542 315-639, R608W, biotin (EZ-Link Sulfo-NHS-Biotinylation Kit, between 1 and 2 moles of biotin per mole) in the Octet RED96 assay only); assay: as above; settings: both partners purified
T4 construct: Made by QuikChange on the His6-GST Pex5p(C) plasmid; also called Pex5p(C) R608W

[3] = target: T5, human Pex5p(C), cargo-binding domain of Pex5p (residues 315-639), wild-type (human, UniProt P50542 315-639, biotin (EZ-Link Sulfo-NHS-Biotinylation Kit, between 1 and 2 moles of biotin per mole) in the Octet RED96 assay only); assay: as above; settings: both partners purified
T5 construct: The His6-GST fusion is cleavable with TEV protease; also called Pex5p(C) WT; HsPex5p(C)

[4] = target: T6, human Pex5p(C) (residues 315-639) D624W (human, UniProt P50542 315-639, D624W, biotin (EZ-Link Sulfo-NHS-Biotinylation Kit, between 1 and 2 moles of biotin per mole) in the Octet RED96 assay only); assay: as above; settings: both partners purified
T6 construct: Made by QuikChange on the His6-GST Pex5p(C) plasmid; also called Pex5p(C) D624W

[5] = target: T4, human Pex5p(C) (residues 315-639) R608W; assay: ITC; MicroCal VP-ITC; Pex5p(C) wild-type or mutant titrated with mSCP2 or the peptide PGNAKL; as described in ref 4; settings: both partners purified
[6] = target: T5, human Pex5p(C), cargo-binding domain of …; assay: as above; settings: both partners purified
[7] = target: T6, human Pex5p(C) (residues 315-639) D624W; assay: as above; settings: both partners purified
[8] = target: T1, Gal4DB-preSCP2 (1-143), two-hybrid …; assay: two-hybrid; GAL4 based, S. cerevisiae PCY2; Gal4AD-Pex5p(C) with Gal4DB-SCP2 variants; β-galactosidase activity (A420 per mg protein per min), mean of three measurements; settings: partners not purified
[9] = target: T2, Gal4DB-mSCP2 (21-143), two-hybrid fusion; assay: as above; settings: partners not purified

Binder	koff [1] [s⁻¹]	kon [1] [M⁻¹ s⁻¹]	koff [2] [s⁻¹]	kon [2] [M⁻¹ s⁻¹]	koff [3] [s⁻¹]	kon [3] [M⁻¹ s⁻¹]	koff [4] [s⁻¹]	kon [4] [M⁻¹ s⁻¹]	Kd [5] [µM]	dH [5] [kJ/mol]	stoichiometry N [5]	Kd [6] [µM]	dH [6] [kJ/mol]	stoichiometry N [6]	Kd [7] [µM]	dH [7] [kJ/mol]	stoichiometry N [7]	fold reduction of the two-hybrid interaction against wild-type Pex5p(C) [8] [fold]	fold reduction of the two-hybrid interaction against wild-type Pex5p(C) [9] [fold]
mature sterol carrier protein 2, mSCP2 (21-143) (natural protein, human, UniProt P22307-2 21-143, looked up, numbers count on: preSCP2 of 143 residues; The His6-GST fusion is cleavable with TEV protease) SSASDGFKANLVFKEIEKKLEEEGEQFVKKIGGIFAFKVKDGPGGKEATWVVDVKNGKGSVLPNSDKKADCTITMADSDFLALMTGKMNPQSAFFQGKLKITGNMGLAMKLQNLQLQPGNAKL	6e-05	6500	7.3e-05	7200	5.5e-05	23000	0.00015	11000	0.179 ± 0.019	-71.7	0.61 ± 0.06	0.095 ± 0.021	-43.4	0.93 ± 0.03	0.045 ± 0.008	-55.6	0.41 ± 0.08	–	–
PGNAKL (C-terminal six residues of sterol carrier protein 2, human; numbers count on: preSCP2 of 143 residues; Free C-terminal carboxylate (PGNAKL-CO2-) as printed in the background; also called PGNAKL-CO2-; source: synthetic peptide (Sigma-Aldrich, > 95% purity)) [PTS1 hexapeptide PGNAKL derived from the C-terminus of SCP2]	–	–	–	–	–	–	–	–	0.635 ± 0.025	-51.6	0.81 ± 0.01	0.547 ± 0.006	-42.5	0.94 ± 0.02	0.763	-54.7	0.49 ± 0.01	–	–
sterol carrier protein 2 with presequence, preSCP2 (1-143) (natural protein, human, UniProt P22307-2 1-143, looked up, numbers count on: preSCP2 of 143 residues; The His6-GST fusion is cleavable with TEV protease; also called full-length SCP2) MGFPEAASSFRTHQIEAVPTSSASDGFKANLVFKEIEKKLEEEGEQFVKKIGGIFAFKVKDGPGGKEATWVVDVKNGKGSVLPNSDKKADCTITMADSDFLALMTGKMNPQSAFFQGKLKITGNMGLAMKLQNLQLQPGNAKL	5.1e-05	7300	5e-05	9000	7.9e-05	35000	8.6e-05	13000	–	–	–	–	–	–	–	–	–	–	–
Gal4AD-Pex5p(C) (residues 315-639) R608W, two-hybrid fusion (domain or fragment, also called Pex5p(C) R608W; source: yeast two-hybrid fusion (S. cerevisiae PCY2)) not shown	–	–	–	–	–	–	–	–	–	–	–	–	–	–	–	–	–	3	3
